Assay results from publication PMC8748714 (2022).
No end group written: not given here.

Tests used:
GLP-1R Y145A = biological target: T1, GLP-1R Y145A (Homo sapiens)
T1 chain: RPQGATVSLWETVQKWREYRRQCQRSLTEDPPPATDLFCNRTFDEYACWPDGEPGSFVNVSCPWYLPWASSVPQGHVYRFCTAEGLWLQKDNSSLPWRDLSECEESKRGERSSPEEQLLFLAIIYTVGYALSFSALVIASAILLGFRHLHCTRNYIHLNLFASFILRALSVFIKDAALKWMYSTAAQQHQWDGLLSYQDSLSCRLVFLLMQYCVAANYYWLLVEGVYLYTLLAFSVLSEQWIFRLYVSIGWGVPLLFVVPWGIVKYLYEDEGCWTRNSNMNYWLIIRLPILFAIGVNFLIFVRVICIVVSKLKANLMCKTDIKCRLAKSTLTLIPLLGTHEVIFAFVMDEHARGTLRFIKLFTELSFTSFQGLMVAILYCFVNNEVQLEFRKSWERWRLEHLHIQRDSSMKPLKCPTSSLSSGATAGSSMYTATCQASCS

GLP-1R S193A = biological target: T2, GLP-1R S193A (Homo sapiens)
T2 chain: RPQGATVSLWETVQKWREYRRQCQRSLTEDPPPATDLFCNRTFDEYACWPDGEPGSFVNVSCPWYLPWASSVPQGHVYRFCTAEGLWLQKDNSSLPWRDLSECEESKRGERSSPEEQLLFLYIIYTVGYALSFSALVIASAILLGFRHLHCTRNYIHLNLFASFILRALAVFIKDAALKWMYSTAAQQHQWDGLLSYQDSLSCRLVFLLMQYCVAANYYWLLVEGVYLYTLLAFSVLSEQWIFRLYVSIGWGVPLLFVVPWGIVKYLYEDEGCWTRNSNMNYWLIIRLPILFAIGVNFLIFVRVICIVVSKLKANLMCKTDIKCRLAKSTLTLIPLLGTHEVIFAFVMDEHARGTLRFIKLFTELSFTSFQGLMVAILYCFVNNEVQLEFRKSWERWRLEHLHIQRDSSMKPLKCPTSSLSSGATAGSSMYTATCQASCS

GLP-1R P137A = biological target: T3, GLP-1R P137A (Homo sapiens)
T3 chain: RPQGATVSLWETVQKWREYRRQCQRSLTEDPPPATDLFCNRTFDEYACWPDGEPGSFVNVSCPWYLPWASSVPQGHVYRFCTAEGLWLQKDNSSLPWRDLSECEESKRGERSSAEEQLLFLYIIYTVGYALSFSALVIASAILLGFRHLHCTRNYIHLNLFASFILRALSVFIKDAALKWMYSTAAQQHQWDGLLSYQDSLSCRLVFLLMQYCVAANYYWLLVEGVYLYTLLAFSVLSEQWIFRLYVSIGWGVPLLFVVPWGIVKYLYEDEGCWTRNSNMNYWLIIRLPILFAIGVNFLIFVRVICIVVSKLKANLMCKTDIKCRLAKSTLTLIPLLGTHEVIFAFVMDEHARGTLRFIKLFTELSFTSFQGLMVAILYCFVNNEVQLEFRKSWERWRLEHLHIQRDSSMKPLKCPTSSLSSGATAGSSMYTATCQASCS

GLP-1R L142A = biological target: T4, GLP-1R L142A (Homo sapiens)
T4 chain: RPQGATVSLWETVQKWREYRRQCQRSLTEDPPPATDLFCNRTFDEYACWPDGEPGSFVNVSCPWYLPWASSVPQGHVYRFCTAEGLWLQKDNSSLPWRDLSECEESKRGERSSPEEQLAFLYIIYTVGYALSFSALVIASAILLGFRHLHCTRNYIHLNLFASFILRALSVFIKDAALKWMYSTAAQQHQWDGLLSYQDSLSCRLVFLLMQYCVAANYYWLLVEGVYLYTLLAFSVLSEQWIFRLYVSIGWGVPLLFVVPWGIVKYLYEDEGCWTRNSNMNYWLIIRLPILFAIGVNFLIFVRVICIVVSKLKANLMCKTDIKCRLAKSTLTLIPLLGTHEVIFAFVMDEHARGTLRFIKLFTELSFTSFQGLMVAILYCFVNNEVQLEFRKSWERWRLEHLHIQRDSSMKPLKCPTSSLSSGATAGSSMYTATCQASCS

GLP-1R Q210A = biological target: T5, GLP-1R Q210A (Homo sapiens)
T5 chain: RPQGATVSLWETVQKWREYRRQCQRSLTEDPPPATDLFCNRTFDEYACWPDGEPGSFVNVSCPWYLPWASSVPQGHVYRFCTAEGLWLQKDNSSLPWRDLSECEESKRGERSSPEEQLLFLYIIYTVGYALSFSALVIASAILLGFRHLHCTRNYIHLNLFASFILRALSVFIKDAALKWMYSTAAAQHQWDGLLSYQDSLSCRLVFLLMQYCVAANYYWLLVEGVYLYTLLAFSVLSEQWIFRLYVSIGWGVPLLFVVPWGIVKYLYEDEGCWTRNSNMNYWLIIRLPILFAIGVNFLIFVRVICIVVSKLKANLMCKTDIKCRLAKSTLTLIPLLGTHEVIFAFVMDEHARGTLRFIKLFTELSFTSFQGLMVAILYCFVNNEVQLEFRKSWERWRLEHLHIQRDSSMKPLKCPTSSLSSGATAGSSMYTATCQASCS

Binder	IC50 (GLP-1R Y145A) [nM]	IC50 (GLP-1R S193A) [nM]	IC50 (GLP-1R P137A) [nM]	IC50 (GLP-1R L142A) [nM]	IC50 (GLP-1R Q210A) [nM]
HAEGTFTSDVSSYLEGQAAKEFIAWLVKGR (not fully specified (C-terminus)) [glucagon-like peptide-1]	6.17	5.01	40.7	–	–
HSQGTFTSDYSKYLDSRRAQDFVQWLMNTKRNRNNIA [oxyntomodulin]	24.5	14.8	74.1	81.3	66.1
